Experimental data published in publication PMC2603577 (Journal of immunology (Baltimore, Md. : 1950), 2008).

How the values were obtained:
HSP70 = assay: Immunoblot of MDM lysates, HSP70; type: cell-based, human; conditions: cytokines 10 ng/ml each, 120 hrs, vs control
IDE = assay: Immunoblot of MDM lysates, IDE; type: cell-based, human; conditions: cytokines 10 ng/ml each, 120 hrs, vs control
HSC70 = assay: Immunoblot of MDM lysates, HSC70; type: cell-based, human; conditions: cytokines 10 ng/ml each, 120 hrs, vs control
human MDM [1] = system: human MDM
human MDM [2] = assay: Pulse-chase of fibrillar 125I-Aβ in MDM chased with recombinant cytokines; type: cell-based; conditions: cytokines at final 10 ng/ml, chase 120 hrs, vs control MDM
human microglia [3] = system: human microglia
human microglia [4] = assay: Pulse-chase of fibrillar 125I-Aβ in microglia chased with recombinant cytokines; type: cell-based; conditions: cytokines at final 10 ng/ml, chase 120 hrs, vs control

TNF-α
reduction of HSP70 expression (band intensity / β-actin) (HSP70): no effect | reduction of IDE expression (band intensity / β-actin) (IDE): no effect | reduction of HSC70 expression (band intensity / β-actin) (HSC70): no effect

Oligomeric Aβ42: 125I-Aβ42 incubated in PBS at 4°C for 24hs, supernatant fraction
extracellular TCA-soluble fraction (degraded form) at saturation (% total count) (human MDM [1]): ~40%

Oligomeric Aβ40: 125I-Aβ40 incubated in PBS at 4°C for 24hs, supernatant fraction
extracellular TCA-soluble fraction (degraded form) at saturation (% total count) (human MDM [1]): ~75%

TGF-β1: recombinant cytokine transforming growth factor-β1
effect on intracellular retention of fibrillar Aβ40 (human MDM [2]): significantly reduced

IFN-γ: recombinant cytokine interferon-γ
reduction of HSP70 expression (band intensity / β-actin) (HSP70): no effect | reduction of IDE expression (band intensity / β-actin) (IDE): no effect | reduction of HSC70 expression (band intensity / β-actin) (HSC70): no effect

IL-13: recombinant cytokine
effect on intracellular retention of fibrillar Aβ40 (human MDM [2]): no effect

IL-10: recombinant cytokine
effect on intracellular retention of fibrillar Aβ40 (human MDM [2]): significantly reduced | effect on intracellular retention of fibrillar Aβ42 (human MDM [2]): suppressed

IL-4: recombinant cytokine interleukin-4
effect on intracellular retention of fibrillar Aβ40 (human MDM [2]): significantly reduced | effect on intracellular retention of fibrillar Aβ42 (human MDM [2]): suppressed

Fibrillar Aβ42: iodinated synthetic Aβ42 peptide aggregated with stirring at 37°C for 3 days, precipitated fraction
intracellular retention at saturation (% total count) (human microglia [3]): ~42% | extracellular TCA-soluble fraction (degraded form) at saturation (% total count) (human MDM [1]): ~40%

Fibrillar Aβ40: iodinated synthetic Aβ40 peptide aggregated with stirring at 37°C for 3 days, precipitated fraction
extracellular TCA-insoluble fraction at saturation (% total count) (human microglia [3]): ~30% | extracellular TCA-soluble fraction at saturation (% total count) (human microglia [3]): approximately 10% | intracellular retention at saturation (% total count) (human microglia [3]): approximately 60% | extracellular TCA-soluble fraction (degraded form) at saturation (% total count) (human MDM [1]): ~40% | intracellular retention at saturation (% total count) (human MDM [1]): approximately 50%

B1: IFN-γ: recombinant cytokine interferon-γ (protein, UniProt P01579 24-161, looked up)
Interferon gamma: QDPYVKEAENLKKYFNAGHSDVADNGTLFLGILKNWKEESDRKIMQSQIVSFYFKLFKNFKDDQSIQKSVETIKEDMNVKFFNSNKKKRDDFEKLTNYSVTDLNVQRKAIHELIQVMAELSPAAKTGKRKRSQMLFRG
effect on intracellular retention of fibrillar Aβ40 (human MDM [2]): significantly enhanced | effect on intracellular retention of fibrillar Aβ42 (human MDM [2]): significantly enhanced | effect on intracellular retention of fibrillar Aβ40 (human microglia [4]): significantly enhanced | effect on intracellular retention of fibrillar Aβ42 (human microglia [4]): enhanced
